According to patent CN104610448A (WOMEN S HOSPITAL SCHOOL OF MEDICINE ZHEJIANG UNIVERSITY, dated 2015):

Tests used:
[1] = molecular target: T1, HPV16E6 (pEGFP-C1-HPV16E6质粒转染293T细胞所提蛋白) (HPV16, UniProt P03126 1-158); assay: western blot, 293T lysate, recombinant antibody
T1 construct: not shown: EGFP tag encoded by the pEGFP-C1 vector (N-terminal to the insert)

[2] = molecular target: T2, HPV58E6 (pEGFP-C1-HPV58E6质粒转染293T细胞所提蛋白) (HPV58, UniProt P26555 1-149); assay: western blot, 293T lysate, recombinant antibody 1:100
T2 construct: Expressed from pEGFP-C1 in 293T cells, so an EGFP fusion (band at 37-55 KD); assayed as denatured cell lysate in western blot; not shown: EGFP tag encoded by the pEGFP-C1 vector (N-terminal to the insert)
T2 sequence (looked up): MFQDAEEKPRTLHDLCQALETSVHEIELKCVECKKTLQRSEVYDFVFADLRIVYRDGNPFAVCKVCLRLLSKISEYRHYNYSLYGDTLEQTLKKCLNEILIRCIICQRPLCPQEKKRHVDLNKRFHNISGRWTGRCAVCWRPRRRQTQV

T1 sequence (P03126 whole entry): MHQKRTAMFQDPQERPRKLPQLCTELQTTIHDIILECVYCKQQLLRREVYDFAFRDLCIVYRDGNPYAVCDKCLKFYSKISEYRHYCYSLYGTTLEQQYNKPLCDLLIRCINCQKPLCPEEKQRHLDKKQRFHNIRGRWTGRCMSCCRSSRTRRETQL

B1: HPV58E6特异性兔单克隆抗体 (ZJM1b-9 H2/L1 重组抗体) (antibody, V domains shown)
VH: QSVEESGGRLVTPGTPLTLTCTVSGFSLSSKTISWVRQAPGKGLEWIGAIDSNGMKAYARWAKGRFTISKSSTTVYLKITSPTTEDTATYFCVKPNNLWGPGTLVTVSS
VL: AQVLTQTPSPVSAAVGGTVTINCQSSQSVYNNNALSWYQQKPGQPPKLLIYSASKVATGVPSRFSGSGSGAQFTLTISDLECDDAATYYCQGEFSCSSADCFAFGGGTEVVVKG
notes: Recombinant rabbit monoclonal antibody made in HEK-293-6E cells from pTT5 plasmids; also called ZJM1b-9中的H2/L1; ZJM-1-9H2/L1
- binding result [1]: no binding (tested: 1:100稀释)
- binding result [2]: binds
